In patent publication US20250152742A1, “COMPOSITIONS AND METHODS FOR NEUROLOGICAL DISEASES” (Trames Bio, Inc., priority 2022, published 2025):

Tested on: engineered chimeric receptor SEQ ID NO: 33 and its mutants (human α7-nAChR ligand binding domain / human GlyRα1 ion pore domain) in Lenti-X 293T cells
Test: YFP fluorescence quenching anion reporter plate reader assay (percent quench, EC50)
Assay type: cell-based
Conditions: for YFP fluorescence quenching using CNL001 (percent quench): receptor named in row; for YFP fluorescence quenching using Varenicline, 3 nM var: ligand Varenicline 3 nM; for YFP fluorescence quenching using Varenicline, 30 nM var: ligand Varenicline 30 nM; for YFP fluorescence quenching using Varenicline, 300 nM var: ligand Varenicline 300 nM; for YFP fluorescence quenching using Varenicline, 500 nM var: ligand Varenicline 500 nM; for YFP fluorescence quenching using Varenicline, 1 uM var: ligand Varenicline 1 uM
Outline: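 Lenti-X 293T cells co-expressing an anion-quenchable YFP were transiently transfected with receptor DNA, then ligand was added in NaI-substituted buffer (pH 7.2) after 30 min at 37 °C. Fluorescence was read about 2 min; percent quench = mean of last 10 s over 15 s pre-ligand baseline.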

B1: CODA340: engineered receptor: L131E in SEQ ID NO: 33 (protein)
chain: MRCSPGGVWLALAASLLHVSLQGEFQRKLYKELVKNYNPLERPVANDSQPLTVYFSLSLLQIMDVDEKNQVLTTNIWLQMSWTDHYLQWNVSEYPGVKTVRFPDGQIWKPDILLYNSADERFDATFHTNVEVNSSGHCQYLPPGIFKSSCPMDLKNFPMDVQTCKLKFGSWSYGGWSLDLQMQEADISGYIPNGEWDLVGIPGKRSERFYECCKEPYPDVTFTVTMRRRMGYYLIQMYIPSLLIVILSWISFWINMDAAPARVGLGITTVLTMTTQSSGSRASLPKVSYVKAIDIWMAVCLLFVFSALLEYAAVNFVSRQHKELLRFRRKRRHHKSPMLNLFQEDEAGEGRFNFSAYGMGPACLQAKDGISVKGANNSNTTNPPPAPSKSPEEMRKLFIQRAKKIDKISRIGFPMAFLIFNMFYWIIYKIVRREDVHNQ
modifications: synthetic sequence of chimeric LGIC
1 nM CNL001, first column so headed
  YFP fluorescence quenching using CNL001 (percent quench): 76.413%
1 nM CNL001, second column so headed
  YFP fluorescence quenching using CNL001 (percent quench): 77.144%
3 nM brd (TC-5619/Bradanicline)
  YFP fluorescence quenching using TC-5619/Bradanicline (percent quench): 68.57%
10 nM CNL001, first column so headed
  YFP fluorescence quenching using CNL001 (percent quench): 78.258%
10 nM CNL001, second column so headed
  YFP fluorescence quenching using CNL001 (percent quench): 78.763%
30 nM TC-6683
  YFP fluorescence quenching using TC-6683 (percent quench): 30.14%
30 nM brd (TC-5619/Bradanicline)
  YFP fluorescence quenching using TC-5619/Bradanicline (percent quench): 76.85%
50 nM CNL001, first column so headed
  YFP fluorescence quenching using CNL001 (percent quench): 79.757%
50 nM CNL001, second column so headed
  YFP fluorescence quenching using CNL001 (percent quench): 79.327%
50 nM abt (ABT-126)
  YFP fluorescence quenching using ABT-126 (percent quench): 2.2%
100 nM CNL001, first column so headed
  YFP fluorescence quenching using CNL001 (percent quench): 79.011%
100 nM CNL001, second column so headed
  YFP fluorescence quenching using CNL001 (percent quench): 79.948%
100 nM CNL002
  YFP fluorescence quenching (percent quench): 49.97%
100 nM abt (ABT-126)
  YFP fluorescence quenching using ABT-126 (percent quench): 25.39%
100 nM azd0328
  YFP fluorescence quenching using AZD-0328 (percent quench): 82.48%
300 nM TC-6683
  YFP fluorescence quenching using TC-6683 (percent quench): 33.02%
300 nM abt (ABT-126)
  YFP fluorescence quenching using ABT-126 (percent quench): 36.48%
300 nM azd0328
  YFP fluorescence quenching using AZD-0328 (percent quench): 82.04%
300 nM brd (TC-5619/Bradanicline)
  YFP fluorescence quenching using TC-5619/Bradanicline (percent quench): 78.49%
1 uM CNL001, first column so headed
  YFP fluorescence quenching using CNL001 (percent quench): 79.855%
1 uM CNL001, second column so headed
  YFP fluorescence quenching using CNL001 (percent quench): 80.618%
1 uM CNL002
  YFP fluorescence quenching (percent quench): 67.8%
1 uM abt (ABT-126)
  YFP fluorescence quenching using ABT-126 (percent quench): 50.76%
3 uM TC-6683
  YFP fluorescence quenching using TC-6683 (percent quench): 41.68%
10 uM ach (acetylcholine)
  YFP fluorescence quenching (percent quench): 15.29%
30 uM CNL002
  YFP fluorescence quenching (percent quench): 64.58%
30 uM TC-6683
  YFP fluorescence quenching using TC-6683 (percent quench): 35.75%
30 uM ach (acetylcholine)
  YFP fluorescence quenching (percent quench): 66.56%
30 uM azd0328
  YFP fluorescence quenching using AZD-0328 (percent quench): 81.8%
100 uM TC-6683
  YFP fluorescence quenching using TC-6683 (percent quench): 24.32%
100 uM ach (acetylcholine)
  YFP fluorescence quenching (percent quench): 81.31%
1 mM ach (acetylcholine)
  YFP fluorescence quenching (percent quench): 80.77%
3 mM ach (acetylcholine)
  YFP fluorescence quenching (percent quench): 77.31%
Ligand Facinicline 30 nM
  YFP fluorescence quenching using Facinicline, 30 nM fac: 82.51
Ligand Facinicline 100 nM
  YFP fluorescence quenching using Facinicline, 100 nM fac: 83.6
Ligand Facinicline 300 nM
  YFP fluorescence quenching using Facinicline, 300 nM fac: 82.92
Ligand Facinicline 30 uM
  YFP fluorescence quenching using Facinicline, 30 uM fac: 82.68
Ligand TC-6987 1 uM
  YFP fluorescence quenching using TC-6987, 1 uM tc6987: 80.13
Ligand TC-6987 10 uM
  YFP fluorescence quenching using TC-6987, 10 uM tc6987: 81.29
Ligand TC-6987 500 uM
  YFP fluorescence quenching using TC-6987, 500 uM tc6987: 79.6
First column
  YFP fluorescence quenching using Varenicline, 3 nM var: −4.061
  YFP fluorescence quenching using Varenicline, 30 nM var: 62.964
  YFP fluorescence quenching using Varenicline, 300 nM var: 74.912
  YFP fluorescence quenching using Varenicline, 500 nM var: 76.346
  YFP fluorescence quenching using Varenicline, 1 uM var: 75.805
Second column
  YFP fluorescence quenching using Varenicline, 3 nM var: −0.568
  YFP fluorescence quenching using Varenicline, 30 nM var: 63.631
  YFP fluorescence quenching using Varenicline, 300 nM var: 75.084
  YFP fluorescence quenching using Varenicline, 500 nM var: 75.876
  YFP fluorescence quenching using Varenicline, 1 uM var: 74.856
